Test results reported in paper PMC9408373, “CDC42-IQGAP Interactions Scrutinized: New Insights into the Binding Properties of the GAP-Related Domain” (International Journal of Molecular Sciences, 2022).

B1: human CDC42 (aa 1-178), wild type (natural protein)
chain: not shown
notes: Loaded with mant-GppNHp or mant-GDP (fluorescence assays) or GppNHp (SEC); also called CDC42 WT; CDC42^wt; source: E. coli, purified (glutathione Sepharose), GST cleaved with thrombin; not shown: GST, N-terminal, cleaved
B2: human IQGAP1 C794 (aa 863-1657) (domain or fragment, UniProt P46940 863-1657, looked up)
chain: DPPMVVVRKFVHLLDQSDQDFQEELDLMKMREEVITLIRSNQQLENDLNLMDIKIGLLVKNKITLQDVVSHSKKLTKKNKEQLSDMMMINKQKGGLKALSKEKREKLEAYQHLFYLLQTNPTYLAKLIFQMPQNKSTKFMDSVIFTLYNYASNQREEYLLLRLFKTALQEEIKSKVDQIQEIVTGNPTVIKMVVSFNRGARGQNALRQILAPVVKEIMDDKSLNIKTDPVDIYKSWVNQMESQTGEASKLPYDVTPEQALAHEEVKTRLDSSIRNMRAVTDKFLSAIVSSVDKIPYGMRFIAKVLKDSLHEKFPDAGEDELLKIIGNLLYYRYMNPAIVAPDAFDIIDLSAGGQLTTDQRRNLGSIAKMLQHAASNKMFLGDNAHLSIINEYLSQSYQKFRRFFQTACDVPELQDKFNVDEYSDLVTLTKPVIYISIGEIINTHTLLLDHQDAIAPEHNDPIHELLDDLGEVPTIESLIGESSGNLNDPNKEALAKTEVSLTLTNKFDVPGDENAEMDARTILLNTKRLIVDVIRFQPGETLTEILETPATSEQEAEHQRAMQRRAIRDAKTPDKMKKSKSVKEDSNLTLQEKKEKIQTGLKKLTELGTVDPKNKYQELINDIARDIRNQRRYRQRRKAELVKLQQTYAALNSKATFYGEQVDYYKSYIKTCLDNLASKGKVSKKPREMKGKKSKKISLKYTAARLHEKGVLLEIEDLQVNQFKNVIFEISPTEEVGDFEVKAKFMGVQMETFMLHYQDLLQLQYEGVAVMKLFDRAKVNVNLLIFLLNKKFYGK
notes: source: E. coli, purified (glutathione Sepharose), GST cleaved with thrombin; not shown: GST, N-terminal, cleaved
B3: human IQGAP2 C795 (aa 780-1575) (domain or fragment, UniProt Q13576 780-1575, looked up)
chain: PLTVIRKFVYLLDQSDLDFQEELEVARLREEVVTKIRANQQLEKDLNLMDIKIGLLVKNRITLEDVISHSKKLNKKKGGEMEILNNTDNQGIKSLSKERRKTLETYQQLFYLLQTNPLYLAKLIFQMPQNKSTKFMDTVIFTLYNYASNQREEYLLLKLFKTALEEEIKSKVDQVQDIVTGNPTVIKMVVSFNRGARGQNTLRQLLAPVVKEIIDDKSLIINTNPVEVYKAWVNQLETQTGEASKLPYDVTTEQALTYPEVKNKLEASIENLRRVTDKVLNSIISSLDLLPYGLRYIAKVLKNSIHEKFPDATEDELLKIVGNLLYYRYMNPAIVAPDGFDIIDMTAGGQINSDQRRNLGSVAKVLQHAASNKLFEGENEHLSSMNNYLSETYQEFRKYFKEACNVPEPEEKFNMDKYTDLVTVSKPVIYISIEEIISTHSLLLEHQDAIAPEKNDLLSELLGSLGEVPTVESFLGEGAVDPNDPNKANTLSQLSKTEISLVLTSKYDIEDGEAIDSRSLMIKTKKLIIDVIRNQPGNTLTEILETPATAQQEVDHATDMVSRAMIDSRTPEEMKHSQSMIEDAQLPLEQKKRKIQRNLRTLEQTGHVSSENKYQDILNEIAKDIRNQRIYRKLRKAELAKLQQTLNALNKKAAFYEEQINYYDTYIKTCLDNLKRKNTRRSIKLDGKGEPKGAKRAKPVKYTAAKLHEKGVLLDIDDLQTNQFKNVTFDIIATEDVGIFDVRSKFLGVEMEKVQLNIQDLLQMQYEGVAVMKMFDKVKVNVNLLIYLLNKKFYGK
notes: as for B2
B4: human IQGAP1 GRD1 (aa 962-1345) (domain or fragment, UniProt P46940 962-1345, looked up)
chain: SKEKREKLEAYQHLFYLLQTNPTYLAKLIFQMPQNKSTKFMDSVIFTLYNYASNQREEYLLLRLFKTALQEEIKSKVDQIQEIVTGNPTVIKMVVSFNRGARGQNALRQILAPVVKEIMDDKSLNIKTDPVDIYKSWVNQMESQTGEASKLPYDVTPEQALAHEEVKTRLDSSIRNMRAVTDKFLSAIVSSVDKIPYGMRFIAKVLKDSLHEKFPDAGEDELLKIIGNLLYYRYMNPAIVAPDAFDIIDLSAGGQLTTDQRRNLGSIAKMLQHAASNKMFLGDNAHLSIINEYLSQSYQKFRRFFQTACDVPELQDKFNVDEYSDLVTLTKPVIYISIGEIINTHTLLLDHQDAIAPEHNDPIHELLDDLGEVPTIESLIGESS
notes: as for B2
B5: human CDC42 (aa 1-178) Q61L (natural protein)
chain: not shown
notes: also called CDC42^Q61L; CDC42(Q61L); source: E. coli, purified (glutathione Sepharose), GST cleaved with thrombin; not shown: GST, N-terminal, cleaved

What was measured:
Settings in all cases: both partners purified
[1] = molecular target: T1, human IQGAP2 GRD2 (aa 875-1246) (human, UniProt Q13576 875-1246); test: fluorescence polarisation; 1 µM mant-GppNHp-bound CDC42 in the cuvette, IQGAP protein titrated; quadratic ligand binding equation
T1 construct: source: E. coli, purified (glutathione Sepharose), GST cleaved with thrombin; not shown: GST, N-terminal, cleaved
T1 sequence (looked up): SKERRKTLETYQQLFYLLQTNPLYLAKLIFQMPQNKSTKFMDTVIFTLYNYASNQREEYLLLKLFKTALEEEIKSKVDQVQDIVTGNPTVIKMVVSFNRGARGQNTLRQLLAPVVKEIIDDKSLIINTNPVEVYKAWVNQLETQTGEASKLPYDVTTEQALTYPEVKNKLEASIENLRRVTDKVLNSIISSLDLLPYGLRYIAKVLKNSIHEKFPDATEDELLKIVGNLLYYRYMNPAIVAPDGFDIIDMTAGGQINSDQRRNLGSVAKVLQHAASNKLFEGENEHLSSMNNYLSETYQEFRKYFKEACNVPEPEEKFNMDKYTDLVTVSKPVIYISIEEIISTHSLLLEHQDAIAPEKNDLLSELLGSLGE

[2] = molecular target: B3; test: as above
[3] = molecular target: B2; test: as above
[4] = molecular target: B4; test: as above
[5] = molecular target: B1; test: fluorescence polarisation; 1 µM mant-GDP-bound CDC42 in the cuvette, IQGAP protein titrated; quadratic ligand binding equation
[6] = molecular target: B1; test: SEC; GppNHp-bound CDC42 mixed with IQGAP1 GRD1; Superdex 200 10/300, 30 mM Tris/HCl pH 7.5, 150 mM NaCl, 5 mM MgCl2; stoichiometry from calibrated elution volumes
[7] = molecular target: B5; test: as above

B1
Kd [1]: 69 µM | Kd [2]: 0.9 µM | Kd [3]: 0.6 µM | Kd [4]: 186 µM

B2
fold higher affinity for mGppNHp-bound than for mGDP-bound CDC42 [5]: ~100 fold

B3
fold higher affinity for mGppNHp-bound than for mGDP-bound CDC42 [5]: ~100 fold

B4
stoichiometry N [6]: 1 GRD1 per CDC42 (2:2) | stoichiometry N [7]: 2 ratio 2:1 as printed (which partner is the 2 is not told)

B5
Kd [1]: 2.5 µM | Kd [4]: 2.7 µM
